# Source: US11834499
# Numbering of substitutions follows the chain as printed.
# B1: HuAb307-3 (antibody, V domains shown)
# VH: EVQLLESGGGLVQPGGSLRLSCAASGFTFSSYTMSWVRQAPGKGLEWVATIIIGGSYTYYADSVKGRFTISRDNSKNTLYLQMNSLRAEDTAVYYCTRLVKGNAMDYWGQGTLVTVSS
# VL: DIVMTQSPDSLAVSLGERVTMNCKSSQSLLNSGNQKNYLSWYQQKPGQPPKLLFYWASTRESGVPDRFSGSGSGTDFTLTISSVQAEDVAVYYCQNDYSYPFTFGQGTKLEIK
# B2: 02-0358-h5 (antibody, V domains shown)
# VH: EVQLVESGGGLVQPGGSLRLSCAVSGFTFSSFGMHWVRQAPGKGLEWVAYISSGTTNIYYADSVKGRFTVSRDNAKNSLYLQMNSLRAEDTAVYYCVRSGYYGNSLDYWGQGTLVTVSS
# VL: B1 VL with L30F, N31S, K36R, S40T, F54I, D97V, S99I, F102L
# B3: 02-0307-h6 (antibody, V domains shown)
# VH: B1 VH
# VL: B1 VL with N31S
# B4: 02-0358-h3 (antibody, V domains shown)
# VH: B2 VH
# VL: B1 VL with L30F, K36R, S40T, F54I, D97V, S99I, F102L
# Legend:
# [1] = target: Claudin-18.1 (CLDN18.1) (human) (UniProt P56856); assay: flow cytometry; HEK293T human CLDN18.1 mGFP 2B14, 1ug; control HEK293T parental 1ug 5,328.00
# rat CLDN18 (rat) [2] = target: rat CLDN18 (rat) (UniProt Q5I0E5); assay: flow cytometry; HEK293T rat CLDN18 moxGFP Clone5, 1ug; control HEK293T parental 1ug 5,328.00
# [3] = target: dogCLDN18 (Canis lupus familiaris); assay: flow cytometry; HEK293T dogCLDN18 moxGFP mass pop, 1ug; control HEK293T parental 1ug 5,328.00
# [4] = target: Claudin-18.1 (CLDN18.1) (human) (UniProt P56856); assay: flow cytometry; HEK293T human CLDN18.1 mGFP 2B14, 10ug; control HEK293T parental 10ug 12,759.00
# rat CLDN18 (rat) [5] = target: rat CLDN18 (rat) (UniProt Q5I0E5); assay: flow cytometry; HEK293T rat CLDN18 moxGFP Clone5, 10ug; control HEK293T parental 10ug 12,759.00
# [6] = target: dogCLDN18 (Canis lupus familiaris); assay: flow cytometry; HEK293T dogCLDN18 moxGFP mass pop, 10ug; control HEK293T parental 10ug 12,759.00
# [7] = target: Claudin-18.1 (CLDN18.1) (human) (UniProt P56856); assay: flow cytometry; HEK293T human CLDN18.1 mGFP 2B14, 0.1ug; control HEK293T parental 0.1ug 3,276.00
# rat CLDN18 (rat) [8] = target: rat CLDN18 (rat) (UniProt Q5I0E5); assay: flow cytometry; HEK293T rat CLDN18 moxGFP Clone5, 0.1ug; control HEK293T parental 0.1ug 3,276.00
# [9] = target: dogCLDN18 (Canis lupus familiaris); assay: flow cytometry; HEK293T dogCLDN18 moxGFP mass pop, 0.1ug; control HEK293T parental 0.1ug 3,276.00
# [10] = target: Claudin-18.1 (CLDN18.1) (human) (UniProt P56856); assay: flow cytometry; HEK293T human CLDN18.1 mGFP 2B14, 1ug; control HEK293T parental 1ug 8,287.00
# rat CLDN18 (rat) [11] = target: rat CLDN18 (rat) (UniProt Q5I0E5); assay: flow cytometry; HEK293T rat CLDN18 moxGFP Clone5, 1ug; control HEK293T parental 1ug 8,287.00
# [12] = target: dogCLDN18 (Canis lupus familiaris); assay: flow cytometry; HEK293T dogCLDN18 moxGFP mass pop, 1ug; control HEK293T parental 1ug 8,287.00
# [13] = target: Claudin-18.1 (CLDN18.1) (human) (UniProt P56856); assay: flow cytometry; HEK293T human CLDN18.1 mGFP 2B14, 10ug; control HEK293T parental 10ug 29,683.50
# rat CLDN18 (rat) [14] = target: rat CLDN18 (rat) (UniProt Q5I0E5); assay: flow cytometry; HEK293T rat CLDN18 moxGFP Clone5, 10ug; control HEK293T parental 10ug 29,683.50
# [15] = target: dogCLDN18 (Canis lupus familiaris); assay: flow cytometry; HEK293T dogCLDN18 moxGFP mass pop, 10ug; control HEK293T parental 10ug 29,683.50
# [16] = target: Claudin-18.1 (CLDN18.1) (human) (UniProt P56856); assay: flow cytometry; HEK293T human CLDN18.1 mGFP 2B14, 0.1ug; control HEK293T parental 0.1ug 3,589.50
# rat CLDN18 (rat) [17] = target: rat CLDN18 (rat) (UniProt Q5I0E5); assay: flow cytometry; HEK293T rat CLDN18 moxGFP Clone5, 0.1ug; control HEK293T parental 0.1ug 3,589.50
# [18] = target: dogCLDN18 (Canis lupus familiaris); assay: flow cytometry; HEK293T dogCLDN18 moxGFP mass pop, 0.1ug; control HEK293T parental 0.1ug 3,589.50
# [19] = target: Claudin-18.1 (CLDN18.1) (human) (UniProt P56856); assay: flow cytometry; HEK293T human CLDN18.1 mGFP 2B14, 1ug; control HEK293T parental 1ug 9,051.00
# rat CLDN18 (rat) [20] = target: rat CLDN18 (rat) (UniProt Q5I0E5); assay: flow cytometry; HEK293T rat CLDN18 moxGFP Clone5, 1ug; control HEK293T parental 1ug 9,051.00
# [21] = target: dogCLDN18 (Canis lupus familiaris); assay: flow cytometry; HEK293T dogCLDN18 moxGFP mass pop, 1ug; control HEK293T parental 1ug 9,051.00
# [22] = target: Claudin-18.1 (CLDN18.1) (human) (UniProt P56856); assay: flow cytometry; HEK293T human CLDN18.1 mGFP 2B14, 10ug; control HEK293T parental 10ug 22,390.50
# rat CLDN18 (rat) [23] = target: rat CLDN18 (rat) (UniProt Q5I0E5); assay: flow cytometry; HEK293T rat CLDN18 moxGFP Clone5, 10ug; control HEK293T parental 10ug 22,390.50
# [24] = target: dogCLDN18 (Canis lupus familiaris); assay: flow cytometry; HEK293T dogCLDN18 moxGFP mass pop, 10ug; control HEK293T parental 10ug 22,390.50
# [25] = target: Claudin-18.1 (CLDN18.1) (human) (UniProt P56856); assay: flow cytometry; HEK293T human CLDN18.1 mGFP 2B14, 0.1ug; control HEK293T parental 0.1ug 2,726.00
# rat CLDN18 (rat) [26] = target: rat CLDN18 (rat) (UniProt Q5I0E5); assay: flow cytometry; HEK293T rat CLDN18 moxGFP Clone5, 0.1ug; control HEK293T parental 0.1ug 2,726.00
# [27] = target: dogCLDN18 (Canis lupus familiaris); assay: flow cytometry; HEK293T dogCLDN18 moxGFP mass pop, 0.1ug; control HEK293T parental 0.1ug 2,726.00
# [28] = target: Claudin-18.1 (CLDN18.1) (human) (UniProt P56856); assay: flow cytometry; HEK293T human CLDN18.1 mGFP 2B14, 1ug; control HEK293T parental 1ug 4,198.00
# rat CLDN18 (rat) [29] = target: rat CLDN18 (rat) (UniProt Q5I0E5); assay: flow cytometry; HEK293T rat CLDN18 moxGFP Clone5, 1ug; control HEK293T parental 1ug 4,198.00
# [30] = target: dogCLDN18 (Canis lupus familiaris); assay: flow cytometry; HEK293T dogCLDN18 moxGFP mass pop, 1ug; control HEK293T parental 1ug 4,198.00
# [31] = target: Claudin-18.1 (CLDN18.1) (human) (UniProt P56856); assay: flow cytometry; HEK293T human CLDN18.1 mGFP 2B14, 10ug; control HEK293T parental 10ug 16,812.50
# rat CLDN18 (rat) [32] = target: rat CLDN18 (rat) (UniProt Q5I0E5); assay: flow cytometry; HEK293T rat CLDN18 moxGFP Clone5, 10ug; control HEK293T parental 10ug 16,812.50
# [33] = target: dogCLDN18 (Canis lupus familiaris); assay: flow cytometry; HEK293T dogCLDN18 moxGFP mass pop, 10ug; control HEK293T parental 10ug 16,812.50
# [34] = target: Claudin-18.1 (CLDN18.1) (human) (UniProt P56856); assay: flow cytometry; HEK293T human CLDN18.1 mGFP 2B14, 0.1ug; control HEK293T parental 0.1ug 3,268.00
# rat CLDN18 (rat) [35] = target: rat CLDN18 (rat) (UniProt Q5I0E5); assay: flow cytometry; HEK293T rat CLDN18 moxGFP Clone5, 0.1ug; control HEK293T parental 0.1ug 3,268.00
# [36] = target: dogCLDN18 (Canis lupus familiaris); assay: flow cytometry; HEK293T dogCLDN18 moxGFP mass pop, 0.1ug; control HEK293T parental 0.1ug 3,268.00
# Chain of rat CLDN18 (rat) (Q5I0E5 whole entry): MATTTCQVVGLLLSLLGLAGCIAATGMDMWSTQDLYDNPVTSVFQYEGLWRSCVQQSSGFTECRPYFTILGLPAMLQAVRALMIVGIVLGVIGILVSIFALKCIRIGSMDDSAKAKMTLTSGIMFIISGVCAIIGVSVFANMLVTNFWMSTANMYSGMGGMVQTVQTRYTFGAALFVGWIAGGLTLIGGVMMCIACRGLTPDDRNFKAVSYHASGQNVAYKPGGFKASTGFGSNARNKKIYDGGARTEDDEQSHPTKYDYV
# Chain of Claudin-18.1 (CLDN18.1) (human) (P56856 whole entry): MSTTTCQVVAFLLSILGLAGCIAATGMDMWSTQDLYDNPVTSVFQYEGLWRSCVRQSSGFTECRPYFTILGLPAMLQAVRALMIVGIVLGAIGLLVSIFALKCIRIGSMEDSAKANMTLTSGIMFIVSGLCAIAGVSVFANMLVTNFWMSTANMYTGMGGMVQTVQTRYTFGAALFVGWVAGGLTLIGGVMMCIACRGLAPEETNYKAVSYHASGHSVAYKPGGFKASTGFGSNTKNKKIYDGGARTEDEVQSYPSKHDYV
binder,measurement,setting,value
B1,flow cytometry signal,[1],54100
same,flow cytometry signal,rat CLDN18 (rat) [2],7320
same,flow cytometry signal,[3],6030
same,flow cytometry signal,[4],76900
same,flow cytometry signal,rat CLDN18 (rat) [5],13800
same,flow cytometry signal,[6],10200
same,flow cytometry signal,[7],52100
same,flow cytometry signal,rat CLDN18 (rat) [8],3810
same,flow cytometry signal,[9],3860
B2,flow cytometry signal,[10],64800
same,flow cytometry signal,rat CLDN18 (rat) [11],12400
same,flow cytometry signal,[12],8760
same,flow cytometry signal,[13],140000
same,flow cytometry signal,rat CLDN18 (rat) [14],31200
same,flow cytometry signal,[15],20600
same,flow cytometry signal,[16],52700
same,flow cytometry signal,rat CLDN18 (rat) [17],4580
same,flow cytometry signal,[18],4700
B3,flow cytometry signal,[19],68800
same,flow cytometry signal,rat CLDN18 (rat) [20],10900
same,flow cytometry signal,[21],9480
same,flow cytometry signal,[22],156000
same,flow cytometry signal,rat CLDN18 (rat) [23],30700
same,flow cytometry signal,[24],21800
same,flow cytometry signal,[25],53100
same,flow cytometry signal,rat CLDN18 (rat) [26],3600
same,flow cytometry signal,[27],3690
B4,flow cytometry signal,[28],55200
same,flow cytometry signal,rat CLDN18 (rat) [29],5070
same,flow cytometry signal,[30],4230
same,flow cytometry signal,[31],99100
same,flow cytometry signal,rat CLDN18 (rat) [32],16700
same,flow cytometry signal,[33],11700
same,flow cytometry signal,[34],50400
same,flow cytometry signal,rat CLDN18 (rat) [35],3720
same,flow cytometry signal,[36],3700
